Reference: the nanobody polyreactivity screen of Harvey et al. (2022)

Experiment: yeast display, Sf9 membrane polyspecificity reagent, FACS + sequencing; frameworks hold sequencing errors
Summary of the method: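 After 36–48 hours of galactose induction, yeast (Saccharomyces cerevisiae BJ5465) displaying a synthetic nanobody library were stained at 4 °C for 1 hour with 10% biotinylated, detergent-solubilized Sf9 membrane reagent. Streptavidin microbeads enriched the stained cells before FACS sorting into low and high (top ~1%) gates on anti-HA and streptavidin fluorescence. Each clone's polyreactivity label reflects its gate of origin.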

Row | Sequence | polyreactivity (PSR sort gate)
1 | QVQLVESGGGLVQAGGSLRLSCAASGSTCSRNAMGWYRQAPGKERELVAAINYSGGITYYADSVKGRFTISRDNAKNTVYLQMNSLKPEDTAVYYGAAVATNVPTHGRPSRRAYDYWGQGTQVTVSS | low polyreactivity
2 | QVQLVESGGGLVQAGGSLRLSCAASGSTFYRYAMGWYRQAPGKERELVAAISTRSGSTYYADSVKGRFTISRDNAKNTVYLQMNSLKPEDTAVYYCAADGHKKTARKYYYWGQGTQVTVSS | low polyreactivity
3 | QVQRVESGGRLVQAGGSLRLSCAPSGFTFQDYAMGWSRQAPGKERELVAAISRNGGSTYYADSVKGRFTISRDNAKNTVYLQMNSLKPEDTAVYYCNADSHHRRGSRDYCGQGTQVTVSS | low polyreactivity
4 | QVQLVESGGGLVQAGGSLRLSCAASGSIFWIYAMGWYRQAPGKERELVATITRRGGSTYYADSVKGRFTISRDNAKNTGYLQMNSLKPEDSAVYYCATEPGYTYLTSYKYDYWGQGTQVTVSS | low polyreactivity
5 | QLQLVESGGGLVQAGGSLRLSCAASGSIFLIYDMGWYRQAPGKEMELVAAISNSVGSTYADSVKGRFTISRDNAKNTVYLQMNSLKPEDTAVYYCNADSGPIDGRGGYWGQGTQVTVSS | low polyreactivity
6 | QVQLVESGGGLVQAGGSLRLSCAASGLTFYGNAMGWYRQAPGKERELVAAISSSGGTTYYADSVKGRFTISRDNAKNTVYLQMNSLKPEDTAVYYCAARPSGGYESTRTRDYWGQGTQVTVSS | low polyreactivity
7 | QVQLVESGGGLVQAGGSLRLSCAASGRTFWYYGMGWYRQAPGKERELVAAISRSGGRTSYADSVKGRFTISRDNAKNTVYLQMNSLKPEDTAVYYCATDGYYRYGYWGQGTQVTVAS | high polyreactivity
8 | QVQLVESGGGLVQAGGSLRLSCAASGFTFDYYAMGWYRQAPGKERELVAAISSSGGSTYYADSVKGRFTISRDNAKNTVYLQMNSLKPADTAVYYCGTGHSKKYDYWGQGTQVTVSS | high polyreactivity
9 | QVQLVESGGGLVQAGGSLRLSCAASGFTFAYYAMGWYRQAPGKERELVATITSGGRTYYADSVKGRFTISSDNAKNTVYLQMNSLKPEDTAVYYCAATGRSGVLSSYYYWGQGTQVTVSS | high polyreactivity
10 | QVQLVESGGGLVQAGGSLRLSCAASGRTFFYNAMGWYRQAPGKERELVAAISSGGGSTYYADSVKGRFTISRDNAKNTVYLQMNSLKPEDTAVYYCAAASYRQPGYGYWGQGTQVTVSS | high polyreactivity
11 | QVQLVESGGGLVQAGGSLRLTCAASGRIFGYYAKGWYSQAPGKERELGATITFGGGSTCYADSVKGRFTISRDNAKKTVYLQMNSLKPEDTAVYYCAADSGYLGIYGDEYSWGQGTQVTVSS | low polyreactivity
12 | QVQLVESGGGLVQAGGSLRLSCAASGITFDLYDMGWYRQAPGKERELVAAITDADSTYYADSVKGRFTISRDNAKNTVYLQMNSLKPEDTAVYYCAADFFYSVYSGHYDYWGQGTQVTVSS | low polyreactivity
13 | QVQLVESGGGLVQAGGSLRLSCAASGSIFFDYAMGWDRQAPGKERQLVAAISWTGGSTYYADSVKGRFTISRDNAKNTVYLQMNSLKPEDTAVYYCNARYYSYSSPYDYWGQGTQVTVSS | high polyreactivity
14 | QVQLVESGGGLVQAGGSLRLSCAASGRTFYSYTMGWYRPAPGKERELVAAISSRGGSTYYADSVKGRFTISRDNAKNTVYLQMNSLKPEDTAVYYCNAARYGRHLSTYDYWGQGTQVTVSS | high polyreactivity
15 | HVQLVESGGGLVQAGGSLRLSCAASGRIFGVYVMGWYRPAPGKERELVAGISPSGGSTYYADSVKGRFTISRDNAKNTVYLQMNSLKPEDTAVYYCAAVLRIRRPRYGYWGQGTQVTVSS | high polyreactivity
16 | QDQLVESGGGLVQAGGSLRLSCAASGSTFPDYAMGWYRQAPGKERELVAAISRSGGRTYYADSVKGRFTISRDNAKNTVYLQMNSLKPDDTAVYYCATSRVRSAGRDYWGQGTQVTVSS | high polyreactivity
17 | QVQLVESGGGLVQAGGSLRLSCAASGIIFYIYAMGWYRQAPGKERELVAGISWRGGSTSYADSVKGRFTISRDNAKNTVYLQMNSLKPEDTAVYYCAAEVYSWDGYDYWGQGTQVTVSS | low polyreactivity
18 | QVQLVEAGGGLVQAGGSLRLSCAASGITFGDNAMGCYRQAPGKERELVAAITLSDVDTYADSVKGRFTISRDNAKNTVYLQMNSMKPEDTAVYYCAADYDFFSLYLYDYCGQGTQVTVSS | low polyreactivity
19 | QVQLVESGGGLVQAGGSLRLSCAASGFTFPYYAMGWYRQAPGKERELVAAISSGGNTNYADSVKGRFTISRDNAKNTVYLQMNSLKPEDTAVYYCAAVFLRYLNWSVKYDYWGQGTQVTVSS | low polyreactivity
20 | QVQLVESGGGLVQAGGSLRLSCAASGRTIGQNAMGWYRQAPGKERELVAAISASGSNTYYADSVKGRFTISRDNAKNTVYLQMNSLKPEDTAVYYCAKQVYRPGQQSRYDYWGQGTQVTVSS | low polyreactivity
21 | QVQLVESGGGLVHAGGSLRLSCAAWSIFYLNAMGWYRQAPGKERELVAAISSAGSTYYADSVKGRFTISRDNAKNTVYLQMNSLKPEDTAVYYCAAYWYDSPGVTEIWYDYWGQGTQVTVSS | low polyreactivity

Row | Sequence | polyreactivity (PSR sort gate)
22 | QVQLVESGGGLVQAGGSLRLSCAASGTIFFPNAMGWYREAPGKERELVAAISWSGDSTYADSVKGRFTISRDNAKNTVYLQMNSLKPQDTAVYYCAAVYLWWSYEFDYWGQGTQVTVSS | low polyreactivity
23 | QDQLVESGGGLVQAGGSLRLSCAASGFTFNTYAMGWNRQAPGKERELVDAISKSGTRTYYADSVKGRFTISRDNAKNTVYLQMKSLKPEVTAVYYCAAEALYYYRLGWVYLRYDYWGQGTQVTVSS | high polyreactivity
24 | QVQLVESGGGLVQAGGSLRLSCAASGTFTVNTMGWSRQAPGKERELVAAISTGDTTTYADSVKGRFTISRDNAKNTVYLQMNSLKPEDTAVYYCNAVAKLYYWRYDYWGQGTQVTVSS | low polyreactivity
25 | QVQLVESRGGLVQAGGSVRLSFAASGRILKYNAMGWYRQAPGKERELVAAISYRGGSTYYADSVKGRFTISRDNAKNTVYLQMNSLKPEDTAVYYCAALTESTSYGYWGQGTQVTVSS | low polyreactivity
26 | QVQLVESGGGLVQAGGSLRLSCAASGSTFNVYGMGCYRQAPGKERELVAAINRDGITYADSVKGRFTISRDNAKNTVYLQMNSLKPEDTAVYYCAAGYSPYKGSAGYYWGQGTQVTVSS | low polyreactivity
27 | QVQLVESGGGLVQAGGSLRLSCAASGITSARYAMGWYRQAPGKERELVAAITLSGVRTYYADSVKGRFTISRDQAKNTVYLQMNSLKPEDTAVYYCNTVYYSKWGQGTQVTVSS | low polyreactivity
28 | QVQLVESGGGLVQAGGSLRLTCAASGSTFSVYDMGWYRKAPGKERELVAAIDVTGGSTYYADSVKGRFTISRDNAKNTVSLQMNSLKPEDTAVYYCNAGKCYSLYGMYYWGQGTQVTVSS | low polyreactivity
29 | QVQLVESGGGLVQAGGSLRLSCPASGSIFKYYAMGWYRQAPGKDRELVAPITDRGSSTYYADSVKGRFTISRDNAKNTVYLQMNSLKPEDTAVYYCAAVYYAFYRFGYWGQGTQVTVSS | high polyreactivity
30 | QVQIVESGGGLVQAGGSLRLSCAASGITFGPYAMGWYRQAPWKERELVAAISYSGGNTYYADSVKGRFTISRDNAKNTVYLQMNSLKPEDTAVDYCARVQSLKYNYWGQGTQVTVSS | high polyreactivity
31 | QVKLVESGGGLVQAGGSLRLSCADSGSIFYNNAMGWYRQAPGKERELVATIRRSGGSTYYADSVKGRFTISRDNAKNTVYLQMISLKPEDTAVDYCNAPPYLALVLIDYDYWGQGTQVTVSS | low polyreactivity
32 | QVQLVESGGGLVQAGGSHRLSCAASGSIFPSYAKGWYRQAPGKERELVATIGRGGTTNYADSVKGRFTISRDNAKNTVYLQMNSLKPEDTAVYYCNAERIWRYKYGYDYWGQGTQVTVSS | high polyreactivity
33 | QVQLVESGGGLVQAGGSLRLSCAASGSTFYTNAMGWYRQAPGKEREMVASITGGGSTYYADSVKGRFTISRDNAKNTVYLQMNSLKPEDTAVYYCDADNVGGGWEFDSWGQGTQVTVSS | low polyreactivity
34 | QVQLVESGGGLVQAGGSLRLSCAASGRIFDHNAMGWYRQAPGKERELVAAINYSDDSTYYADSVKGRFTISRDNAKNTVYLQMNSLKPEDTAVYYCNADVGSEYSDKYDYWGQGTQVTVSS | low polyreactivity
35 | QVQLVESGGGLVQAGGSLRVSCAASGFTFTRYTMGWYRQAPGKEWELVAAITRSGGNTYYADSVKGRFTISRDNAKNTVYLQMNSLKPEDTAVYYCAARQVSGIGPYDYWGQGTQVTVSS | high polyreactivity
36 | QVQHVESGGGLVQAGGSLRLSCAASGRIYFAYAMGWSRQAPGKERELVASITSGGSTNYADSVKGRFTISRDNGKNTLYLQMNSLKPEDTAVYYCAARSRFSNLYGRFYYWGQGTQVTVSS | high polyreactivity
37 | QVQLVESGGGLVQAGCSLRLSCAASGRIFSFYAMGWYRQAPGKERELVITSGGDTNYADSVKGRFTISRDNAKNTVYLQLNSLKPEDTAVYYCNAEGDRSQPYNFDYWGQGTQVTVSS | low polyreactivity
38 | QVQLVESGGGLVQAGGSLRLSCAASGRTFVRYAMGWYRQAPGKERELVAAISLRGGRTYYADSVKGRFTISRDYANNTVYLQMNSRNPEDTAVYYCAARSYPTGASFDYWGQGTQVTVSS | high polyreactivity
39 | QVQLVESGGGLVQAGGSLRLSCAASGRILPLYAMGWYRQAPGKDRELVALIDSGGSTNYADSVKGRFTISRDNAKNTVYLQMNSLKPEDTAVYYCAAVVTAQAYAYFTYGYDYWGQGTQVTVSS | low polyreactivity
40 | QVQLVESGGGLVQAGGSLRLSCAASGSTFRLNAMGWYRQSPGKERELVAAISRGGSTNYADSVKGRFTISRDNAKNTVYLQMNSLKPEDTAVYYCATRRSYKYYWGQGTQVTVSS | high polyreactivity
41 | QVQLVESGGGFVQAGRSLRISSAPSGLMFLGKAMGWYRPAPGKERDLVGGIRALGGTTSYAYSVKGRFTISRDNAKNTVFLQLICKKPEDTELYVCAASYVSSRYFVLRHGDYYWGKGTQVTVSS | low polyreactivity
